Experimental data published in patent publication US7592003B2, “Regulation of toll-like receptors on stem cells” (Oklahoma Medical Research Foundation, priority 2005, dated 2009).

System: LKS^− cells
Assay: Serum-free culture of LKS- myeloid/erythroid progenitors (and CMP, GMP subsets), F4/80 by flow cytometry
Format: cell-based, mouse
Conditions: 72 h, no other growth factors
Procedure: FIGS. 4A-D—Activation of TLRs through MyD88 bypasses normal differentiation cues and drives monocytes/macrophages differentiation of myeloid progenitors. (FIG. 4A) Sorted LKS^− cells from C57BL/6 or MyD88^−/− mice were stimulated with medium alone, LPS (10 μg/ml), Pam3CSK4 (1 μg/ml), M-CSF, or GM-CSF. After 72 h in culture, cells were analyzed by flow cytometry for expression of F4/80. Open histograms depict staining with the isotype matched Ab for F4/80. Percentages given in each histogram indicate the frequencies of F4/80^+ cells and the results are representative of three independent experiments. (FIG. 4B) The bar graph depicts yields, i.e., numbers of F4/80^+ cell recovered per input progenitor. Data represent mean values with standard deviations from triplicate cultures and the results are representative of three independent experiments (*P<0.005). […] After 72 h in culture, cells were analyzed by flow cytometry for expression of F4/80. […] After 24 or 48 h in culture, cells were analyzed by flow cytometry for expression of F4/80. […]
FIG. 13—TLR stimulation causes rapid production of F4/80^+ cells from LKS^− cells. […] Stimulated wells were analyzed after 24 h or 48 h of culture by flow cytometry for expression of F4/80. […]

B1: GM-CSF: Recombinant mouse GM-CSF, colony stimulating factor, 20 ng/ml (protein, UniProt P01587 18-141, looked up)
Granulocyte-macrophage …: APTRSPITVTRPWKHVEAIKEALNLLDDMPVTLNEEVEVVSNEFSFKKLTCVQTRLKIFEQGLRGNFTKLKGALNMTASYYQTYCPPTPETDCETQVTTYADFIDSLKTFLTDIPFECKKPGQK
Acquisition of F4/80 by LKS- cells: only a subset of LKS^− myeloid progenitors responded
